# Assay results published in patent US20230203177A1 (Bristol-Myers Squibb, published 2023).
# Positions count from the first letter of the chain named. Names may count otherwise.
# B1: M17 (HC-wt / LC-K45Q) (antibody, human IgG1, kappa)
# heavy: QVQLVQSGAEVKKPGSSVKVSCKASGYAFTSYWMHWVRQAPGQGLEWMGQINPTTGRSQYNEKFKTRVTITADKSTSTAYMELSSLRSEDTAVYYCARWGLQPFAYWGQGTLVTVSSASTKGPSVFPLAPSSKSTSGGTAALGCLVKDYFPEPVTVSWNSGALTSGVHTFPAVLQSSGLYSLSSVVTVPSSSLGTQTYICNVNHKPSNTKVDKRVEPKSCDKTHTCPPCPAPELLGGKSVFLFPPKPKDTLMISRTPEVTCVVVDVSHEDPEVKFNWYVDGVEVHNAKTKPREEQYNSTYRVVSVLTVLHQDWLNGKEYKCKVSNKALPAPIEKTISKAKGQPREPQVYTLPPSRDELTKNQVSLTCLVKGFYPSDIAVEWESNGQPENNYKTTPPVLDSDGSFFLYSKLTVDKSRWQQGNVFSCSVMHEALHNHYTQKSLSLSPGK
# light: DIQMTQSPSFLSASVGDRVTITCKASQDVSTAVAWYQQKPGKAPQLLIYSASYRYTGVPSRFSGSGSGTDFTLTISSLQPEDFATYYCQQHYSTPWTFGGGTKVEIKRTVAAPSVFIFPPSDEQLKSGTASVVCLLNNFYPREAKVQWKVDNALQSGNSQESVTEQDSKDSTYSLSSTLTLSKADYEKHKVYACEVTHQGLSSPVTKSFNRGEC
# notes: IgG1-P238K; also called HC1/LC2
# B2: M43 (HC-R57E / LC-K45E) (antibody, human IgG1, kappa, V domains shown)
# VH: QVQLVQSGAEVKKPGSSVKVSCKASGYAFTSYWMHWVRQAPGQGLEWMGQINPTTGESQYNEKFKTRVTITADKSTSTAYMELSSLRSEDTAVYYCARWGLQPFAYWGQGTLVTVSS
# VL: DIQMTQSPSFLSASVGDRVTITCKASQDVSTAVAWYQQKPGKAPELLIYSASYRYTGVPSRFSGSGSGTDFTLTISSLQPEDFATYYCQQHYSTPWTFGGGTKVEIKR
# notes: IgG1-P238K; also called HC11/LC3
# B3: M34 (HC-K12Q,K13Q / LC-K45E) (antibody, human IgG1, kappa)
# heavy: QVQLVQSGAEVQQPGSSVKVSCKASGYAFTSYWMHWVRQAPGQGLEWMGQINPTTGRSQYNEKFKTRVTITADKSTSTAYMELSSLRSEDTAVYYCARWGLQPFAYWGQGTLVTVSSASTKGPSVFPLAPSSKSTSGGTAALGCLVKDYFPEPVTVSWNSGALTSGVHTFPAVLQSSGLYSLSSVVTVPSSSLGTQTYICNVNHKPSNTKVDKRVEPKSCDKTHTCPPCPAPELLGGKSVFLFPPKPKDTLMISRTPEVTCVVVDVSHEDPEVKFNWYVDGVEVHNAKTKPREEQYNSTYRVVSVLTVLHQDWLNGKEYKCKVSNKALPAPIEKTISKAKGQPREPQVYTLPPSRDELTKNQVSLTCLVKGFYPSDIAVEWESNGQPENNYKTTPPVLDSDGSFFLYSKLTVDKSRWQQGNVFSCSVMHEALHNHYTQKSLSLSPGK
# light: B1 light with Q45E
# notes: IgG1-P238K; also called HC2/LC3
# B4: M26 (HC-R67E / LC-K45Q) (antibody, human IgG1, kappa, V domains shown)
# VH: B2 VH with E57R, R67E
# VL: B2 VL with E45Q
# notes: IgG1-P238K; also called HC10/LC2
# B5: M18 (HC-K12Q,K13Q / LC-K45Q) (antibody, human IgG1, kappa)
# heavy: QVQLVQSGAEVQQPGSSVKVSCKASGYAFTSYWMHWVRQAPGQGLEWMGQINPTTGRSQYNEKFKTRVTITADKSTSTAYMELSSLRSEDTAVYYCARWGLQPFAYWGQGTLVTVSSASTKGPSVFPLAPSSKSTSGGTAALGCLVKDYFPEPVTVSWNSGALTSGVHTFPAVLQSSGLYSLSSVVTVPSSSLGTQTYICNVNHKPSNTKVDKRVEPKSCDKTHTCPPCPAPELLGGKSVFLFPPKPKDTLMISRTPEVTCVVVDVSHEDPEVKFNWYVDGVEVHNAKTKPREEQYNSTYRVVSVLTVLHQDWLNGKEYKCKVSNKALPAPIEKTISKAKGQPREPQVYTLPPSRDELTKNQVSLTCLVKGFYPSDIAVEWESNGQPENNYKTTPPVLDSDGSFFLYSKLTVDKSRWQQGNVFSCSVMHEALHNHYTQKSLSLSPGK
# light: B1 light
# notes: IgG1-P238K; also called HC2/LC2
# B6: M23 (HC-K23E / LC-K45Q) (antibody, human IgG1, kappa)
# heavy: not shown
# light: B1 light
# notes: IgG1-P238K; also called HC7/LC2
# B7: M42 (HC-R67E / LC-K45E) (antibody, human IgG1, kappa, V domains shown)
# VH: B2 VH with E57R, R67E
# VL: B2 VL
# notes: IgG1-P238K; also called HC10/LC3
# B8: M2 (HC-K12Q,K13Q / LC-wt) (antibody, human IgG1, kappa)
# heavy: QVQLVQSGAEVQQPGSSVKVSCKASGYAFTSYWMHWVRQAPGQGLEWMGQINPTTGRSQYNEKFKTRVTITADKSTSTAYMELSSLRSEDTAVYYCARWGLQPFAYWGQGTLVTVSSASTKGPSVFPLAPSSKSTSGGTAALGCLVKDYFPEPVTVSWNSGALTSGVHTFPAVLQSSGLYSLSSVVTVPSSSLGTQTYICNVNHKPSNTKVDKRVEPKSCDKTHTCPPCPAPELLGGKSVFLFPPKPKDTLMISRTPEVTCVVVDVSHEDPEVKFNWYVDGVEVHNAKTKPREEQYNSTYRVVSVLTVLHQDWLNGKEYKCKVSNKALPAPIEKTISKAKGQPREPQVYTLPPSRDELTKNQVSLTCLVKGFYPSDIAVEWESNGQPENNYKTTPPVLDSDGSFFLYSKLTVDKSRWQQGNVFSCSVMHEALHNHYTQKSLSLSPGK
# light: B1 light with Q45K
# notes: IgG1-P238K; also called HC2/LC1
# B9: M14 (HC-K74T / LC-wt) (antibody, human IgG1, kappa)
# heavy: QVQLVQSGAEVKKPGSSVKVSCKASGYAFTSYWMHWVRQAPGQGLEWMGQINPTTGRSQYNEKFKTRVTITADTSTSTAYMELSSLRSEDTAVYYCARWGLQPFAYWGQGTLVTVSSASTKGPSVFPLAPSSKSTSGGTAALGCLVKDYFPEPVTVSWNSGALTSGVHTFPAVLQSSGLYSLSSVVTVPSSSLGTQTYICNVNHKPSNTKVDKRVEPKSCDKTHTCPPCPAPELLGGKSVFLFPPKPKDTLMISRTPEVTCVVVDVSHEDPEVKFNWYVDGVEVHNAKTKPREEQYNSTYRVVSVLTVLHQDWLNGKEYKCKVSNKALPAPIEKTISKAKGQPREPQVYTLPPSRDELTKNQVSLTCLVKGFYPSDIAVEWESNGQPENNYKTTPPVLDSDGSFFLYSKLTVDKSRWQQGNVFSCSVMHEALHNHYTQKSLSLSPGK
# light: B1 light with Q45K
# notes: IgG1-P238K; also called HC14/LC1
# B10: M29 (HC-E46K,E62K / LC-K45Q) (antibody, human IgG1, kappa, V domains shown)
# VH: B2 VH with E46K, E57R, E62K
# VL: B2 VL with E45Q
# notes: IgG1-P238K; also called HC13/LC2
# B11: M3 (HC-K12Q,K13Q,K23Q / LC-wt) (antibody, human IgG1, kappa)
# heavy: not shown
# light: B1 light with Q45K
# notes: IgG1-P238K; also called HC3/LC1
# B12: M19 (HC-K12Q,K13Q,K23Q / LC-K45Q) (antibody, human IgG1, kappa, V domains shown)
# VH: B2 VH with K12Q, K13Q, K23Q, E57R
# VL: B2 VL with E45Q
# notes: IgG1-P238K; also called HC3/LC2
# B13: M7 (HC-K23E / LC-wt) (antibody, human IgG1, kappa)
# heavy: not shown
# light: B1 light with Q45K
# notes: IgG1-P238K; also called HC7/LC1
# B14: M39 (HC-K23E / LC-K45E) (antibody, human IgG1, kappa)
# heavy: not shown
# light: B1 light with Q45E
# notes: IgG1-P238K; also called HC7/LC3
# B15: M40 (HC-R38Q,K63Q,R67Q / LC-K45E) (antibody, human IgG1, kappa, V domains shown)
# VH: B2 VH with R38Q, E57R, K63Q, R67Q
# VL: B2 VL
# notes: IgG1-P238K; also called HC8/LC3
# B16: M22 (HC-K12V,K19S,K23A / LC-K45Q) (antibody, human IgG1, kappa, V domains shown)
# VH: B2 VH with K12V, K19S, K23A, E57R
# VL: B2 VL with E45Q
# notes: IgG1-P238K; also called HC6/LC2
# B17: M5 (HC-K12E,K13Q,K23E / LC-wt) (antibody, human IgG1, kappa)
# heavy: not shown
# light: B1 light with Q45K
# notes: IgG1-P238K; also called HC5/LC1
# B18: M20 (HC-K12E / LC-K45Q) (antibody, human IgG1, kappa)
# heavy: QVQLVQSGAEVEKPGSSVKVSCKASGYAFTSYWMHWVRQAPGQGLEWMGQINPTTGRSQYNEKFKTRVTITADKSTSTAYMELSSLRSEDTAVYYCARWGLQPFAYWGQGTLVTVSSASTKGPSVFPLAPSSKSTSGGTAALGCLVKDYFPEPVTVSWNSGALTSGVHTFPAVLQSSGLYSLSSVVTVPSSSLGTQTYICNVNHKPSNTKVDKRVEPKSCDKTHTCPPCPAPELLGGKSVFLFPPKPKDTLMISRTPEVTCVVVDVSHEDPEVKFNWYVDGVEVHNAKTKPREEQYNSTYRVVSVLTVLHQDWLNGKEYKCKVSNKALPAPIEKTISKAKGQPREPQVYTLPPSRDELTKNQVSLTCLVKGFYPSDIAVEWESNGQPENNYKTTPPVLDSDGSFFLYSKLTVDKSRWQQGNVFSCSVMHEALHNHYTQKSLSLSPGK
# light: B1 light
# notes: IgG1-P238K; also called HC4/LC2
# B19: M24 (HC-R38Q,K63Q,R67Q / LC-K45Q) (antibody, human IgG1, kappa, V domains shown)
# VH: B2 VH with R38Q, E57R, K63Q, R67Q
# VL: B2 VL with E45Q
# notes: IgG1-P238K; also called HC8/LC2
# B20: M15 (HC-R67Q / LC-wt) (antibody, human IgG1, kappa)
# heavy: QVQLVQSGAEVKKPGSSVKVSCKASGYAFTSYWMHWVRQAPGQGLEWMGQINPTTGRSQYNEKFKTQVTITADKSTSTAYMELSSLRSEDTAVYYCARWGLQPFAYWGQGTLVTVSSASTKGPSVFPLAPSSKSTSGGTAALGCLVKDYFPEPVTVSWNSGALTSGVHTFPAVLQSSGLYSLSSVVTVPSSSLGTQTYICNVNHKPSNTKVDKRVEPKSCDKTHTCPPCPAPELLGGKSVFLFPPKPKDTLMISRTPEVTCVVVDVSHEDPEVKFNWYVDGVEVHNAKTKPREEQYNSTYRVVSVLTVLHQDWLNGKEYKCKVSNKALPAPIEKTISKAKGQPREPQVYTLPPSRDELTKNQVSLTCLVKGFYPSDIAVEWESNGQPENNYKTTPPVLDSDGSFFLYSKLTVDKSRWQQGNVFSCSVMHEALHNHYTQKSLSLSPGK
# light: B1 light with Q45K
# notes: IgG1-P238K; also called HC15/LC1
# B21: M16 (HC-K63Q / LC-wt) (antibody, human IgG1, kappa)
# heavy: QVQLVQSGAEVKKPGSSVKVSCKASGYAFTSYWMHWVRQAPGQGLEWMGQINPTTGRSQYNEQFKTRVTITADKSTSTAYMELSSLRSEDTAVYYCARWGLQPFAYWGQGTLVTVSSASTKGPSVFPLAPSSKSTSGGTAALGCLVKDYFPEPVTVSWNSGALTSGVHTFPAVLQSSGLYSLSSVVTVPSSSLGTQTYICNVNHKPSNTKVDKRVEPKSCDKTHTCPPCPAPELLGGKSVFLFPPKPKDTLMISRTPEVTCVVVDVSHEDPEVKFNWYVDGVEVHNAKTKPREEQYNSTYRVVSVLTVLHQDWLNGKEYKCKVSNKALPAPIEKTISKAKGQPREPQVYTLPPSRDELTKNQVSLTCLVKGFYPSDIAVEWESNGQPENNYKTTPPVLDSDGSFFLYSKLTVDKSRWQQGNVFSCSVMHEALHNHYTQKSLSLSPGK
# light: B1 light with Q45K
# notes: IgG1-P238K; also called HC16/LC1
# B22: M9 (HC-K63Q,R67E / LC-wt) (antibody, human IgG1, kappa)
# heavy: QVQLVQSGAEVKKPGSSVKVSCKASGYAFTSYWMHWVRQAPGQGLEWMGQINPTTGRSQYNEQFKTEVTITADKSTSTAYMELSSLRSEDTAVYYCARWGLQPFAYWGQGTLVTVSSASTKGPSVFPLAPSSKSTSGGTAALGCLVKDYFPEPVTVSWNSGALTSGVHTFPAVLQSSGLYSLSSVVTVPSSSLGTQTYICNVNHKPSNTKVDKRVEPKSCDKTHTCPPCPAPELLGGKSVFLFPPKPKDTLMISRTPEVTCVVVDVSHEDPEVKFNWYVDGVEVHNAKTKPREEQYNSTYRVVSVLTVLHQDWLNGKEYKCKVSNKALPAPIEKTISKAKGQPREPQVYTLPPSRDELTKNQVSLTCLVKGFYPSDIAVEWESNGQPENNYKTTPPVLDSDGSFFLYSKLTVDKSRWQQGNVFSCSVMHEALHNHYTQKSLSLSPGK
# light: B1 light with Q45K
# notes: IgG1-P238K; also called HC9/LC1
# B23: M27 (HC-R57E / LC-K45Q) (antibody, human IgG1, kappa, V domains shown)
# VH: B2 VH
# VL: B2 VL with E45Q
# notes: IgG1-P238K; also called HC11/LC2
# B24: M44 (HC-R57E,K74Q / LC-K45E) (antibody, human IgG1, kappa, V domains shown)
# VH: B2 VH with K74Q
# VL: B2 VL
# notes: IgG1-P238K; also called HC12/LC3
# B25: M28 (HC-R57E,K74Q / LC-K45Q) (antibody, human IgG1, kappa, V domains shown)
# VH: B2 VH with K74Q
# VL: B2 VL with E45Q
# notes: IgG1-P238K; also called HC12/LC2
# B26: M21 (HC-K12E,K13Q,K23E / LC-K45Q) (antibody, human IgG1, kappa)
# heavy: not shown
# light: B1 light
# notes: IgG1-P238K; also called HC5/LC2
# B27: M6 (HC-K12V,K19S,K23A / LC-wt) (antibody, human IgG1, kappa)
# heavy: not shown
# light: B1 light with Q45K
# notes: IgG1-P238K; also called HC6/LC1
# B28: M25 (HC-K63Q,R67E / LC-K45Q) (antibody, human IgG1, kappa, V domains shown)
# VH: B2 VH with E57R, K63Q, R67E
# VL: B2 VL with E45Q
# notes: IgG1-P238K; also called HC9/LC2
# B29: M8 (HC-R38Q,K63Q,R67Q / LC-wt) (antibody, human IgG1, kappa)
# heavy: not shown
# light: B1 light with Q45K
# notes: IgG1-P238K; also called HC8/LC1
# B30: M31 (HC-R67Q / LC-K45Q) (antibody, human IgG1, kappa, V domains shown)
# VH: B2 VH with E57R, R67Q
# VL: B2 VL with E45Q
# notes: IgG1-P238K; also called HC15/LC2
# B31: M11 (HC-R57E / LC-wt) (antibody, human IgG1, kappa)
# heavy: not shown
# light: B1 light with Q45K
# notes: IgG1-P238K; also called HC11/LC1
# B32: M32 (HC-K63Q / LC-K45Q) (antibody, human IgG1, kappa, V domains shown)
# VH: B2 VH with E57R, K63Q
# VL: B2 VL with E45Q
# notes: IgG1-P238K; also called HC16/LC2
# B33: M35 (HC-K12Q,K13Q,K23Q / LC-K45E) (antibody, human IgG1, kappa, V domains shown)
# VH: B2 VH with K12Q, K13Q, K23Q, E57R
# VL: B2 VL
# notes: IgG1-P238K; also called HC3/LC3
# B34: M41 (HC-K63Q,R67E / LC-K45E) (antibody, human IgG1, kappa, V domains shown)
# VH: B2 VH with E57R, K63Q, R67E
# VL: B2 VL
# notes: IgG1-P238K; also called HC9/LC3
# B35: M30 (HC-K74T / LC-K45Q) (antibody, human IgG1, kappa, V domains shown)
# VH: B2 VH with E57R, K74T
# VL: B2 VL with E45Q
# notes: IgG1-P238K; also called HC14/LC2
# B36: M12 (HC-R57E,K74Q / LC-wt) (antibody, human IgG1, kappa)
# heavy: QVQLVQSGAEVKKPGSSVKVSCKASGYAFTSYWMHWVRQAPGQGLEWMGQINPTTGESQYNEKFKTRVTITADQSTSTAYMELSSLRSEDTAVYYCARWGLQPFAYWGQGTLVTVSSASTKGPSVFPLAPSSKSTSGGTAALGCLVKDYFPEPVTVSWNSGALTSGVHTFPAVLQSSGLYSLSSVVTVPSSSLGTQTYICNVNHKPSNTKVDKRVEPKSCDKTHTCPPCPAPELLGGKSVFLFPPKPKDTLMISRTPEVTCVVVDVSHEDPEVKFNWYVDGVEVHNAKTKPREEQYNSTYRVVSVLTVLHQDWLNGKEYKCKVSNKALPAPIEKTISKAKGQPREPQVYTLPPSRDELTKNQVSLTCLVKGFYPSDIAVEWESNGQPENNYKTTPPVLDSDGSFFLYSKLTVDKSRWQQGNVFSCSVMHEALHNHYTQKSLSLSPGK
# light: B1 light with Q45K
# notes: IgG1-P238K; also called HC12/LC1
# Biological target: T1, soluble human CD40 extracellular domain (human, UniProt P25942 21-193)
# T1 construct: Produced in house; also called hCD40; soluble hCD40 extracellular domain
# Experiment: SPR, Ab captured from supernatant on protein A, hCD40 ECD analyte
# Protocol: The titer data (Table 21) were used to normalize the antibody concentration in each supernatant to 3 μg/ml, and these antibodies were captured out of the supernatants on a protein A CMS Series S sensor chip (GE Healthcare), and tested for binding to two concentrations (5 nM and 50 nM) of soluble hCD40 extracellular domain.
# CD40 binding SPR of antibody supernatants: Surface plasmon resonance (SPR) studies were conducted on a BIAcore™ T200 instrument (GE Healthcare, Chicago Ill.). A Series S Protein A sensor chip (GE Healthcare, Chicago Ill.) was equilibrated with SPR running buffer of 10 mM NaPO₄, 130 mM NaCl, 0.05% tween 20, (PBS-T) pH 7.2 at 25° C. The 96 antibody supernatants were normalized to a concentration of 3 μg/ml by diluting with PBS-T using a PerkinElmer JANUS® G3 system (PerkinElmer, Akron, Ohio). After priming the system, the 3 μg/ml antibody samples were captured on the protein A surface for 30 s at 10 μl/min Binding of 50 nM and 500 nM human CD40 extracellular domain (produced in house) was evaluated using association time of 180 s at 30 μl/min, followed by a dissociation time of 180 s at 30 μl/min Regeneration between cycles was accomplished using two 15 s injections of 10 mM glycine pH 1.5. […] Data were analyzed using BIAcore™ T200 evaluation software by fitting to a 1:1 Langmuir model.
# T1 sequence (P25942 21-193 limits assumed): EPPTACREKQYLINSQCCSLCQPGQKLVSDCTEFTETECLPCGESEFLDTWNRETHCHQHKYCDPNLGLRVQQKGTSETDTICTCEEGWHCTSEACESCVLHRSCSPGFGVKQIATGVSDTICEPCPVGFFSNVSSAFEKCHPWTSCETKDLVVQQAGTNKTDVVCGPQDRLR
row,Binder,Kd
1,B1,4.1 nM
2,B2,11.7 nM
3,B3,3.3 nM
4,B4,3 nM
5,B5,3.4 nM
6,B6,4.1 nM
7,B7,3 nM
8,B8,3.7 nM
9,B9,4 nM
10,B10,8.8 nM
11,B11,3.7 nM
12,B12,3.8 nM
13,B13,4.5 nM
14,B14,4.6 nM
15,B15,3.1 nM
16,B16,3.5 nM
17,B17,3.8 nM
18,B18,3.3 nM

row,Binder,Kd
1,B19,2.9 nM
2,B20,3.4 nM
3,B21,4.1 nM
4,B22,3.2 nM
5,B23,10.4 nM
6,B24,17.2 nM
7,B25,15.7 nM
8,B26,3.7 nM
9,B27,3.8 nM
10,B28,3.1 nM
11,B29,3.4 nM
12,B30,3.1 nM
13,B31,10.2 nM
14,B32,3.9 nM
15,B33,3.7 nM
16,B34,3.3 nM
17,B35,4 nM
18,B36,14 nM
